Values of other authors in publication PMC3476528.
pKd: −log10 of the molar value.

Biological target: histone H3 (Homo sapiens) (UniProt P68431)

Sequence of CHD4 PHD2 (Q14839 449-496): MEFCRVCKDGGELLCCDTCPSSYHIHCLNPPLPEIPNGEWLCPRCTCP

pKd: 4.74
Substance: CHD4 PHD2 (from UniProt Q14839)
